T1: hIghmbp2hd (helicase core) (human (Homo sapiens), UniProt P38935 1-652)
T1 sequence: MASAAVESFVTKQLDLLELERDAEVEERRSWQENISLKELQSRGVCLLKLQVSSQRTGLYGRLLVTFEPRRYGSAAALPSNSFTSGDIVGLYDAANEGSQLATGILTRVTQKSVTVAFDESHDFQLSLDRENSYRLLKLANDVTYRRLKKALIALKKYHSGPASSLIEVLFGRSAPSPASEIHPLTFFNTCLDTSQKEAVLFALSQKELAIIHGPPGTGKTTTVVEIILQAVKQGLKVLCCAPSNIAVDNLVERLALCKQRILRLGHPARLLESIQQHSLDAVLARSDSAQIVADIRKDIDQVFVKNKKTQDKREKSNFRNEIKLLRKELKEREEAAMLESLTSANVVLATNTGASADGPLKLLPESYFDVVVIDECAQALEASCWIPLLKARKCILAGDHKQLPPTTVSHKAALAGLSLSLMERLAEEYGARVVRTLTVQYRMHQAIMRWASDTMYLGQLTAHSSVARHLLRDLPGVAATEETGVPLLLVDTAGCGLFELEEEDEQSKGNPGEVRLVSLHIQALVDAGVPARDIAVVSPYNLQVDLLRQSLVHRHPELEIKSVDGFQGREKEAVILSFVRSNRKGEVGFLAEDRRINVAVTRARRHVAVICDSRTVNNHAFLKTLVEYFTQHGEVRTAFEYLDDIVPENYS

T2: mIghmbp2hd-R3H (helicase core + R3H) (mouse, UniProt P40694 1-786)
T2 sequence: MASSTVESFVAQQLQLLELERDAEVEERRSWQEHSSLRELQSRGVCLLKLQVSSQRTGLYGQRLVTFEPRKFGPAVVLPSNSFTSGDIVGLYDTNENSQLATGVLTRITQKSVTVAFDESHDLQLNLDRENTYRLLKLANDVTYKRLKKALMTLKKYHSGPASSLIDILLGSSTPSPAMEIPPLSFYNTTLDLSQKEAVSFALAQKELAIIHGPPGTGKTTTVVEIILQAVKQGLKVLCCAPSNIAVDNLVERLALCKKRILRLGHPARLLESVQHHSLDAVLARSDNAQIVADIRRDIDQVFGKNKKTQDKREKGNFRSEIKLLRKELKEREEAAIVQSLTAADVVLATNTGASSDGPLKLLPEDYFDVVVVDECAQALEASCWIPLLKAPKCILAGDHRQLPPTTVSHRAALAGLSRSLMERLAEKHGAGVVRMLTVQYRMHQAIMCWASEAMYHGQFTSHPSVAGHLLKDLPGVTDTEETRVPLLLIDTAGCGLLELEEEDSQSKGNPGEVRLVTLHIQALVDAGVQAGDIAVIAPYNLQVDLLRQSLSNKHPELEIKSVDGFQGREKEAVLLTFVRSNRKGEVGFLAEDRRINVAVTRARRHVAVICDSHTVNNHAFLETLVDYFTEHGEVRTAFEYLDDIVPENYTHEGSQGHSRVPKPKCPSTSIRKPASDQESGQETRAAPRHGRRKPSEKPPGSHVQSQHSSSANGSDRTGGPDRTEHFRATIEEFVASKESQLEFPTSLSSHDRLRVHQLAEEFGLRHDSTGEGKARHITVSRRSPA


Assays:
[1] = target: T1, hIghmbp2hd (helicase core); assay: fluorescence anisotropy
[2] = target: T2, mIghmbp2hd-R3H (helicase core + R3H); assay: fluorescence anisotropy
[3] = target: T1, hIghmbp2hd (helicase core); assay: crystal structure

| Binder | Kd [1] | Kd [2] | binding result [3] |
| --- | --- | --- | --- |
| UUUUUUUUUUUUUUU (ssRNA) [U15 ssRNA] | 1080 ± 130 nM | 107 ± 29 nM | – |
| AAAAAAAAAA (ssRNA) [A10 ssRNA] | – | – | binds |

Reference: article PMC3505976
